Data published in PMC6344896, “HuR biological function involves RRM3-mediated dimerization and RNA binding by all three RRMs” (Nucleic Acids Research, 2018).

Molecular target: the molecule itself
Test: SAXS; concentration series in solution without RNA (Trx-RRM3 1.25–10 mg/ml; untagged full-length HuR WT and W261E, lowest 0.5 mg/ml); molecular weights from the Porod volume

B1: Trx-RRM3 (HuR RRM3 fused to the C-terminus of E. coli thioredoxin 1 via a GSAM linker) (domain or fragment, human, UniProt Q15717-1 243-326, looked up)
chain: GWCIFIYNLGQDADEGILWQMFGPFGAVTNVKVIRDFNTNKCKGFGFVTMTNYEEAAMAIASLNGYRLGDKILQVSFKTNKSHK
notes: Human HuR/ELAVL1 (NP_001410.2), third RNA recognition motif; Chain order: E. coli thioredoxin 1, Gly-Ser-Ala-Met, RRM3; Thioredoxin structure 2TRX was used for molecular replacement; also called RRM3-Trx; Trx-RRM3 fusion protein; source: E. coli BL21(DE3), purified; not shown: Trx (E. coli thioredoxin 1, uncleavable GSAM linker), N-terminal, kept
stoichiometry N: 2
